Here are results for 2 molecules from patent US20250145977A1 (THERIPION, published 2025).

The target in this assay is T1, Human CD40 ligand (BioLegend) (human, UniProt P29965 113-261, limits assumed).
T1 construct: Coated on the ELISA plate at 2 ug/ml; also called CD154; gp39
T1 sequence (looked up): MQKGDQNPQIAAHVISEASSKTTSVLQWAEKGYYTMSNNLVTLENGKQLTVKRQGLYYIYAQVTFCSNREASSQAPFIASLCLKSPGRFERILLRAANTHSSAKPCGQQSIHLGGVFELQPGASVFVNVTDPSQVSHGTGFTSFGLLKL
In words: ELISA on plate-immobilized human CD40 ligand (2 ug/ml coat); serial dilutions of HEK293 transfection supernatant; detection with HRP goat anti-human IgG Fc; x axis is fold dilution, no concentration given. Background: In an ELISA, binding on a coated surface is turned into a signal by an enzyme label.

B1: [hCD40 EC]-(g4s)4-[SSShinge-P238S Fc] (wild-type CD40-Fc) (Fc fusion)
chain: EPPTACREKQYLINSQCCSLCQPGQKLVSDCTEFTETECLPCGESEFLDTWNRETHCHQHKYCDPNLGLRVQQKGTSETDTICTCEEGWHCTSEACESCVLHRSCSPGFGVKQIATGVSDTICEPCPVGFFSNVSSAFEKCHPWTSCETKDLVVQQAGTNKTDVVCGPDLSGGGGSGGGGSGGGGSGGGGSTGLEPKSSDKTHTSPPSPAPELLGGSSVFLFPPKPKDTLMISRTPEVTCVVVDVSHEDPEVKFNWYVDGVEVHNAKTKPREEQYNSTYRVVSVLTVLHQDWLNGKEYKCKVSNKALPASIEKTISKAKGQPREPQVYTLPPSRDELTKNQVSLTCLVKGFYPSDIAVEWESNGQPENNYKTTPPVLDSDGSFFLYSKLTVDKSRWQQGNVFSCSVMHEALHNHYTQKSLSLSPGK
notes: Tested as HEK293 transfection supernatant; also called CD40WT-Fc
In the case of B1, the binding result was “binds”.

B2: hVK3LP-[hCD40EC E64Y-K81T-P85Y]-(g4s)4-[SSShinge-P238S Fc]-NGS-[PON1 Q192K] (Fc fusion)
chain: EPPTACREKQYLINSQCCSLCQPGQKLVSDCTEFTETECLPCGYSEFLDTWNRETHCHQHTYCDYNLGLRVQQKGTSETDTICTCEEGWHCTSEACESCVLHRSCSPGFGVKQIATGVSDTICEPCPVGFFSNVSSAFEKCHPWTSCETKDLVVQQAGTNKTDVVCGPDLSGGGGSGGGGSGGGGSGGGGSTGLEPKSSDKTHTSPPSPAPELLGGSSVFLFPPKPKDTLMISRTPEVTCVVVDVSHEDPEVKFNWYVDGVEVHNAKTKPREEQYNSTYRVVSVLTVLHQDWLNGKEYKCKVSNKALPASIEKTISKAKGQPREPQVYTLPPSRDELTKNQVSLTCLVKGFYPSDIAVEWESNGQPENNYKTTPPVLDSDGSFFLYSKLTVDKSRWQQGNVFSCSVMHEALHNHYTQKSLSLSPGKVDGASSPVNVSSPSVQDILFRNHQSSYQTRLNALREVQPVELPNCNLVKGIETGSEDLEILPNGLAFISSGLKYPGIKSFNPNSPGKILLMDLNEEDPTVLELGITGSKFDVSSFNPHGISTFTDEDNAMYLLVVNHPDAKSTVELFKFQEEEKSLLHLKTIRHKLLPNLNDIVAVGPEHFYGTNDHYFLDPYLKSWEMYLGLAWSYVVYYSPSEVRVVAEGFDFANGINISPDGKYVYIAELLAHKIHVYEKHANWTLTPLKSLDFNTLVDNISVDPETGDLWVGCHPNGMKIFFYDSENPPASEVLRIQNILTEEPKVTQVYAENGTVLQGSTVASVYKGKLLIGTVFHKALYCEL
notes: Tested as unpurified HEK293 transfection supernatant; also called CD40TM-Fc-P1-K; CD40-Fc-PON1 fusion protein
In the case of B2, the binding result is reported as “binds”.
